From patent US20260146107A1 (ALLIGATOR BIOSCIENCE, published 2026)
Changes are numbered by the printed parent chain.

T1: human CEACAM1 expressed on CHO cells (human, UniProt P13688 35-526)
T1 construct: whole, on cells; also called CHO-CEACAM1; CEACAM1 on cells
T1 sequence (looked up): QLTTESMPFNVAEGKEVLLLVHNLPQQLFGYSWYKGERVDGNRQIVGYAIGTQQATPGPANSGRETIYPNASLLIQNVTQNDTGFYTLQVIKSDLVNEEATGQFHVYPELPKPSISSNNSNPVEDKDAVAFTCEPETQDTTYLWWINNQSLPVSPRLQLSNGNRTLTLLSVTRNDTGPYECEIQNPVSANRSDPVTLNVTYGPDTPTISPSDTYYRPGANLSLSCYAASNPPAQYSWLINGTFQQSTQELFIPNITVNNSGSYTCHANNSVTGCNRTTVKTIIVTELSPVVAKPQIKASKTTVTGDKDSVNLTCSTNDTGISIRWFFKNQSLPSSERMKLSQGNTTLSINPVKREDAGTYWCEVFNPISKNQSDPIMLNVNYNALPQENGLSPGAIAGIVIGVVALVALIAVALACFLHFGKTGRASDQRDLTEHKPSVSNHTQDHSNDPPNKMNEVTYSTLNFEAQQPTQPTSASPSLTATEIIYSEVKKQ

T2: human CEACAM1, recombinant (R&D Systems #2244-CM-050) (human, UniProt P13688 35-428)
T2 construct: also called hCEACAM-1
T2 sequence (looked up): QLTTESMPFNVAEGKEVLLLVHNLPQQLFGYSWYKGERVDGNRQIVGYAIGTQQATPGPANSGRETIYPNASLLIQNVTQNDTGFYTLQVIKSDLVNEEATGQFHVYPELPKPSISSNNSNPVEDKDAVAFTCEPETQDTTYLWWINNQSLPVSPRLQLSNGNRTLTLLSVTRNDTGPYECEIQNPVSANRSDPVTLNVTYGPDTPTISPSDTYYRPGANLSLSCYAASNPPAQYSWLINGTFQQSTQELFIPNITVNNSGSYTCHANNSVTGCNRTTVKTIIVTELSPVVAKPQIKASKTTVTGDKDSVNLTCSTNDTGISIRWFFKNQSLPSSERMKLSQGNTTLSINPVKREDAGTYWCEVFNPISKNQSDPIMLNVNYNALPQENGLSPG

T3: human CEACAM6, recombinant (R&D Systems #3934-CM-050) (human, UniProt P40199 35-320)
T3 construct: also called hCEACAM-6
T3 sequence (looked up): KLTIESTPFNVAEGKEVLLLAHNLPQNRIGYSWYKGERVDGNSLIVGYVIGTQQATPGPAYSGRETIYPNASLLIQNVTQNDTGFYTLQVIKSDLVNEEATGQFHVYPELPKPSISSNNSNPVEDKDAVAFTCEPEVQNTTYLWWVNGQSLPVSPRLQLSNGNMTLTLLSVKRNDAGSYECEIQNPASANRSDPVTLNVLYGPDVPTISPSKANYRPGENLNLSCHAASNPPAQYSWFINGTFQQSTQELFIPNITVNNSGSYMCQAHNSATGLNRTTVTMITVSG

T4: CEACAM-8, recombinant (R&D Systems #9639-CM-050) (UniProt P31997 35-320)
T4 sequence (looked up): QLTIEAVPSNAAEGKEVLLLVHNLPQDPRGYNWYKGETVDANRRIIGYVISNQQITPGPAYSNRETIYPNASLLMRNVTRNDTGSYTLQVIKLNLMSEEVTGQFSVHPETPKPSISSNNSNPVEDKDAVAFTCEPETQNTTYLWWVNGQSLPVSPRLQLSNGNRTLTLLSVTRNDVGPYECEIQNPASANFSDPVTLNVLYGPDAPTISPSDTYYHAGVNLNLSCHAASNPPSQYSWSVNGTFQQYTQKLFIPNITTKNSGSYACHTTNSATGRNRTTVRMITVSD

T5: human CEACAM5, recombinant (R&D Systems #4128-CM-050) (human, UniProt P06731 35-685)
T5 construct: Bought; coated in ELISA and used as monomeric analyte in Octet; also called hCEACAM-5; Human CEACAM5-His; not shown: His tag
T5 sequence (looked up): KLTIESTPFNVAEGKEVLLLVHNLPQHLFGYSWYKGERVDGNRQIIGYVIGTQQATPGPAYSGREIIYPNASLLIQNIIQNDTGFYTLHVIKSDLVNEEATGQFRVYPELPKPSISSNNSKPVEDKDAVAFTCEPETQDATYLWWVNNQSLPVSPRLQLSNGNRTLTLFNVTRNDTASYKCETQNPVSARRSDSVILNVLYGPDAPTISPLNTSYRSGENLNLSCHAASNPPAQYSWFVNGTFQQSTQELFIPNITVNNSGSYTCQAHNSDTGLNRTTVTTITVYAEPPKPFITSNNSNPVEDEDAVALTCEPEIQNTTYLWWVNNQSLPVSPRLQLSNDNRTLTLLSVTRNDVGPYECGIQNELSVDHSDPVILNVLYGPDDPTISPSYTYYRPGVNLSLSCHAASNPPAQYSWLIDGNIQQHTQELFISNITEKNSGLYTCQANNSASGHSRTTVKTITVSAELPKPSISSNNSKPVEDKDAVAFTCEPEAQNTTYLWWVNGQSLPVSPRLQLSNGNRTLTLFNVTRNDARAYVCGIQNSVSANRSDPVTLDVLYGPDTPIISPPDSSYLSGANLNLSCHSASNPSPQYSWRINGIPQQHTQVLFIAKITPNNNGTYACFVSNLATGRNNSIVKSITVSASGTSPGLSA

B1: AC_05061 (antibody, human IgG1, kappa, V domains shown)
VH: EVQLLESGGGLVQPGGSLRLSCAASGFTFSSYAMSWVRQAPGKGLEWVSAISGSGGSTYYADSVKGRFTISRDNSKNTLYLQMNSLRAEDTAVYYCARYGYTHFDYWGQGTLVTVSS
VL: DIQMTQSPSSLSASVGDRVTITCRASQSISSYLNWYQQKPGKAPKLLIYAASSLQSGVPSRFSGSGSGTDFTLTISSLQPEDFATYYCQQGAYVPYTFGQGTKLEIKR
B2: AC_05062 (antibody, human IgG1, kappa, V domains shown)
VH: not shown
VL: B1 VL with S28A, S31G, A50S, G91S, A92Y, Y93S, V94T
B3: AC_05060 (antibody, human IgG1, kappa, V domains shown)
VH: EVQLLESGGGLVQPGGSLRLSCAASGFTFGSYYMSWVRQAPGKGLEWVSGISGYGYYTGYADSVKGRFTISRDNSKNTLYLQMNSLRAEDTAVYYCARHGYGVIDYWGQGTLVTVSS
VL: DIQMTQSPSSLSASVGDRVTITCRASQSIRDYLNWYQQKPGKAPKLLIYAASSLQSGVPSRFSGSGSGTDFTLTISSLQPEDFATYYCQQGTFPFTFGQGTKLEIKR
B4: AC_05064 (antibody, human IgG1, kappa, V domains shown)
VH: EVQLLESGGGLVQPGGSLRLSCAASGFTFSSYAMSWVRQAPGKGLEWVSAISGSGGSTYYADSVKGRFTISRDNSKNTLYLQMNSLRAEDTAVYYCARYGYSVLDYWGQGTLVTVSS
VL: DIQMTQSPSSLSASVGDRVTITCRASQSISSYLNWYQQKPGKAPKLLIYAASSLQSGVPSRFSGSGSGTDFTLTISSLQPEDFATYYCQQYPWYFPYTFGQGTKLEIKR
B5: Multi39 (bispecific antibody)
heavy 1: not shown
light: not shown
heavy 2: EVQLLESGGGLVQPGGSLRLSCAASGFTFYDHAMSWVREAPGKGLEWVSAISGSYGSTGYADSVKGRFTISRDNSKNTLYLQMNSLRAEDTAVYYCARWGGWAGDIDYWGQGTLVTVSSASTKGPSVFPLAPSSKSTSGGTAALGCLVKDYFPEPVTVSWNSGALTSGVHTFPAVLQSSGLYSLTSVVEVPSSSLGTQTYICNVNHKPSNTKVDKKVEPKSC
notes: Optimised RUBY format, CD40xCEACAM5; copies: 2 + 2 + 2

The binders below were run against T1, human CEACAM1 expressed on CHO cells (assay: flow cytometry, transfected CHO cells, IgG1).
Source text: Binding of the antibodies was detected using fluorochrome-conjugated anti-human IgG and analysed using flow cytometry.

binding result | Binder
no binding (tested: 0.5 and 5 µg/ml) | B1
no binding (tested: 0.5 and 5 µg/ml) | B2
no binding (tested: 0.5 and 5 µg/ml) | B3
no binding (tested: 0.5 and 5 µg/ml) | B4

What follows are binders tested against T2, human CEACAM1, recombinant (R&D Systems …) (assay: ELISA, cross-reactivity to other CEA family members).
Method: (§1) 96-well plates were coated with 0.5 μg/mL antigen, hCEACAM-5 (4128-CM-050, R&D Systems), hCEACAM-1 (2244-CM-050, R&D Systems), hCEACAM-6(3934-CM-050, R&D Systems) or CEACAM-8 (9639-CM-050, R&D Systems) in PBS over night at 4° C. After washing with PBS/0.05% Tween 20 (PBST), the plates were blocked with PBST, 2% BSA for at least 30 minutes at room temperature before a second round of washing. […] After washing, plates were incubated with 50 μl detection antibody (0.5 μg/ml HRP conjugated goat anti human-kappa light chain, #STAR127P, AbD Serotec). Finally, a final round of washing was performed and bound complexes detected using SuperSignal Pico Luminescent as substrate and luminescence signals were measured using Fluostar Optima.

binding result | Binder
no binding (tested: 0.4 µg/ml) | B1
no binding (tested: 0.4 µg/ml) | B2
no binding (tested: 0.4 µg/ml) | B3
no binding (tested: 0.4 µg/ml) | B4

These binders were tested against T3, human CEACAM6, recombinant (R&D Systems …) in the same assay as above.
Method: as §1

binding result | Binder
no binding (tested: 0.4 µg/ml) | B1
no binding (tested: 0.4 µg/ml) | B2
no binding (tested: 0.4 µg/ml) | B3
no binding (tested: 0.4 µg/ml) | B4

The binders below were run against T4, CEACAM-8, recombinant (R&D Systems …) in the same assay as above.
Method: as §1

binding result | Binder
no binding (tested: 0.4 µg/ml) | B1
no binding (tested: 0.4 µg/ml) | B2
no binding (tested: 0.4 µg/ml) | B3
no binding (tested: 0.4 µg/ml) | B4

What follows are binders tested against T5, human CEACAM5, recombinant (R&D Systems …) (assay: Octet BLI, IgG1 captured on AHC tips, CEACAM5-His in solution, 1:1 fit).
Method: Kinetic measurements were performed in the Octet RED96 platform using several different setups. Monoclonal antibodies (listed in Table 9), serially diluted ½ starting at 100 nM, were captured to anti human IgG Fc Capture (AHC) Biosensor tips (Sartorius #18-5060). Human CEACAM5-His (R&D Systems #4128-CM-050) diluted in 1× kinetic buffer (Sartorius) at 100 nM was then added. Binding kinetics was studied in 1× kinetic buffer where association was allowed for 300 sec followed by dissociation for 600 sec. Sensor tips were regenerated with 10 mM Glycine pH 1.7. Data generated were referenced by subtracting blank or parallel buffer blank, the baseline was aligned to the y-axis, inter-step correction by alignment against dissociation was performed and the data was smoothed by Savitzky-Golay filter in the data analysis software (v9.0.0.14). The processed data was fitted using a 1:1 Langmuir binding model with R² or X² as a measurement of fitting accuracy.

Kd | koff | kon | Binder
20 nM | 0.002 s⁻¹ | 100000 M⁻¹ s⁻¹ | B1
0.9 nM | 0.002 s⁻¹ | 2e+06 M⁻¹ s⁻¹ | B2
6 nM | 0.002 s⁻¹ | 400000 M⁻¹ s⁻¹ | B3
0.4 nM | 6e-05 s⁻¹ | 100000 M⁻¹ s⁻¹ | B4

These binders were tested against T5, human CEACAM5, recombinant (R&D Systems …) (assay: ELISA, antigen coated at 0.5 µg/mL, bsAb titrated, anti-human kappa-HRP, luminescence).
Method: (§2) 96-well plates were coated with 0.5 μg/mL antigen, hCEACAM-1 (2244-CM-050, R&D Systems), hCEACAM-5 (4128-CM-050, R&D Systems), hCEACAM-6 (3934-CM-050, R&D Systems) or CEACAM-8 (9639-CM-050, R&D Systems) in PBS over night at 4° C. After washing in PBS/0.05% Tween 20 (PBST), the plates were blocked with PBST, 2% BSA for at least 30 minutes at room temperature before a second round of washing. RUBY bsAbs, diluted in PBST, 0.5% BSA, were then added and allowed to bind for at least 1 hour at room temperature. […] Finally, a final round of washing was performed and bound complexes detected using SuperSignal Pico Luminescent as substrate and luminescence signals were measured using Fluostar Optima.

EC50 (read off the curve) | Binder
~1 nM | B5

The binders below were run against T5, human CEACAM5, recombinant (R&D Systems …) (assay: dual-target ELISA: hCEACAM-5 coated, bsAb titrated, detected with biotinylated hCD40-muIg and streptavidin-HRP, luminescence; signal needs both targets bound).
Method: as §2

EC50 (read off the curve) | Binder
~3 nM | B5

What follows are binders tested against T6, biotinylated human CD40-mouse Fc (Ancell #504-030) (human, UniProt P25942 21-193, biotinylated (site not stated)) in the same assay as above.
T6 construct: Bought; also called hCD40-muIg; CD40mFc-biotin; not shown: mouse Ig Fc
Method: as §2

T6 sequence (P25942 21-193): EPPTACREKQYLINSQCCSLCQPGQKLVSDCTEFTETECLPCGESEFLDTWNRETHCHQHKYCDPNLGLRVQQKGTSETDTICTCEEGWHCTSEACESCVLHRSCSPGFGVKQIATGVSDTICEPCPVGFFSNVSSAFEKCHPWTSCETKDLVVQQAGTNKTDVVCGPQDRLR

binding result | Binder
binds | B5
